Experimental data as given in PMC10819241.
Read-outs that look alike come from different tables or passages of the source.

How the values were obtained:
[1] = biological target: CTB-DV1EDIII (after TEV cleavage of hRID-CTB-DV1EDIII) (not stated | dengue virus serotype 1 (DenKor-07 strain)) (UniProt P01556)
[2] = biological target: CTB-DV1EDIII (after TEV cleavage of hRID-CTB-DV1EDIII) (not stated | dengue virus serotype 1 (DenKor-07 strain)) (UniProt P01556); test: SEC
[3] = biological target: CTB-DV1EDIII (after TEV cleavage of hRID-CTB-DV1EDIII) (not stated | dengue virus serotype 1 (DenKor-07 strain)) (UniProt P01556); test: SDS-PAGE without DTT and boiling (native SDS-PAGE)

Measured: stoichiometry N

CTB-DV1EDIII (after TEV cleavage of hRID-CTB-DV1EDIII) (from UniProt P01556 22-124)
5: [1] | [2] | [3]
